Results: the RNAGym collection of RNA variant scans (doi:10.7554/elife.90254)

B1: LINE1-full (parent)
chain: UACGUAGGUGGUUUUCCCCUGAUAGUGCUAAGGGGGCCUGGAAGUUUGGACUGGGCAGAGCUCAACACAGCGUGGCAAAGUGGCUGUGGCUAGACUGCCUCUCUGGAUUCCUCGUCACUCAGCAGGGCAUCUCUGAGAGAAAUGCC

Variants of: B1
Test: self-cleavage, relative activity (ratio to wild type); higher = more cleavage; in vitro, sequencing; the parent is a self-cleaving ribozyme
A64C U115A showed a self-cleavage of 0.38. A136G A140U gave a self-cleavage of 1.29. In the case of A94U A124G, the self-cleavage is reported as 0.33. U81C G126U showed a self-cleavage of 1.4. With U23C C113A the self-cleavage was 0.4. Variant A78G U102C has a self-cleavage of 1.53. For U119C U134G, the self-cleavage was 1.58. For A121G A140U, the self-cleavage was 1.45. For C3U A107U, the self-cleavage was 1.17. U12G C113A showed a self-cleavage of 1.84. In the case of U85C G105U, the self-cleavage is reported as 0.14. Variant U5C U13A has a self-cleavage of 1.67. For A43G G125A, the self-cleavage was 1.24. In the case of A65C G74U, the self-cleavage is reported as 0.03. G25A G35A showed a self-cleavage of 0.91. A42U U96C showed a self-cleavage of 0.06. U26C A141G gave a self-cleavage of 1.27. With C37U A43G the self-cleavage was 1.32. For A31U A138G, the self-cleavage was 1.26. In the case of C51U C145G, the self-cleavage is reported as 1.28. For U13C G35U, the self-cleavage was 0.75. U46C G106A gave a self-cleavage of 1.22. For U12C C113U, the self-cleavage was 0.76. U15A A64G showed a self-cleavage of 0.08. In the case of U13A U112A, the self-cleavage is reported as 0.45. C19U A129U gave a self-cleavage of 1.84. Variant U13C U143C has a self-cleavage of 1.06. A42C A43G gave a self-cleavage of 1.13. For U45A U91A, the self-cleavage was 0.46. Variant U87G has a self-cleavage of 0.21. C113A A140G gave a self-cleavage of 1.06. With A50G C61U the self-cleavage was 0.05. C28U A78G showed a self-cleavage of 1. C71U A77G gave a self-cleavage of 0.86. With U12C U130C the self-cleavage was 1.4. U62A A129G showed a self-cleavage of 0.06. Work on G48U A136G yielded a self-cleavage of 1.19. U102C U112C showed a self-cleavage of 1.53. Variant U15C A129U has a self-cleavage of 1.06. U29C C68U showed a self-cleavage of 0.4. Variant U9A U130C has a self-cleavage of 1.07. G70U U119C gave a self-cleavage of 0.07. A43G U52G gave a self-cleavage of 1.64. Work on C98U A140G yielded a self-cleavage of 0.57. With C103U A117G the self-cleavage was 1.41. Variant U39C A92U has a self-cleavage of 0.58. Variant U20A A129G has a self-cleavage of 0.97. With U73C A94U the self-cleavage was 0.69. Work on U13C U26C yielded a self-cleavage of 1.01. A64C C145U showed a self-cleavage of 0.4. U119G A140G gave a self-cleavage of 2.22. Variant C16A U47G has a self-cleavage of 0.75. G125A A129G gave a self-cleavage of 1.38. Work on G86U U100C yielded a self-cleavage of 0.16. For A57G A79G, the self-cleavage was 1.32. For G75A U130C, the self-cleavage was 0.95. C28U A107G showed a self-cleavage of 0.88. Work on U39A A94G yielded a self-cleavage of 0.36. For A43G U119A, the self-cleavage was 1.15. A57C A141G showed a self-cleavage of 0.11. Work on U12C U15A yielded a self-cleavage of 0.7. U12C U85A gave a self-cleavage of 0.06. A50G U102G showed a self-cleavage of 0.51. In the case of A57G C98G, the self-cleavage is reported as 0.07. With U20C U46A the self-cleavage was 0.85. U39G U45G showed a self-cleavage of 1.05. G4A C133A showed a self-cleavage of 0.79. Variant G34A A57G has a self-cleavage of 1.21. In the case of U13C U96C, the self-cleavage is reported as 0.17. U46C U143A gave a self-cleavage of 1.44. U46C G144A showed a self-cleavage of 2.24. In the case of U15C U81C, the self-cleavage is reported as 1.43. Work on A107G U130A yielded a self-cleavage of 1.74. In the case of C110A A141G, the self-cleavage is reported as 1.84. Work on C18U U26C yielded a self-cleavage of 2.16. Variant A22U A43G has a self-cleavage of 1.01. U96G U134C gave a self-cleavage of 0.23. Variant G40A A117G has a self-cleavage of 1.03. Variant A78G C146U has a self-cleavage of 1.06. Variant U62C G70U has a self-cleavage of 0. U29A A57G showed a self-cleavage of 1.01. A129G G135A showed a self-cleavage of 1.63. Work on C19G yielded a self-cleavage of 0.35. In the case of A59G U132A, the self-cleavage is reported as 0.06. In the case of A78G G144A, the self-cleavage is reported as 1.3. For A107G U112C, the self-cleavage was 1.68. Work on U12C U102C yielded a self-cleavage of 1.18. For U39A A129U, the self-cleavage was 1.65. A79G A140G gave a self-cleavage of 1.12. C61U A77U showed a self-cleavage of 0.03. With A64U U132G the self-cleavage was 0.61. G21A U81A showed a self-cleavage of 1.8. Variant A42U C120U has a self-cleavage of 0.4. For U15G A124U, the self-cleavage was 0.58. Variant U12G U45A has a self-cleavage of 1.3. U85A A117C gave a self-cleavage of 0.07. A31U C61A showed a self-cleavage of 0.13. With A64G C98U the self-cleavage was 0.11. With A107G U134C the self-cleavage was 1.33. In the case of A121G C123U, the self-cleavage is reported as 1.07. With U14C A140G the self-cleavage was 0.87. Variant U13G A30G has a self-cleavage of 1.27. In the case of A2G A138U, the self-cleavage is reported as 0.69. Variant U81A U109A has a self-cleavage of 2.28. In the case of A64G C113U, the self-cleavage is reported as 0.13. A2U U15C gave a self-cleavage of 1.19. With G44A A64G the self-cleavage was 0.33. In the case of A24G U39C, the self-cleavage is reported as 1.11. In the case of C90A, the self-cleavage is reported as 0.04. Work on A69C U132C yielded a self-cleavage of 0. U23C A121G showed a self-cleavage of 2. G54A U104A showed a self-cleavage of 0.18. For C19G A77G, the self-cleavage was 2.07. Variant G32U A94G has a self-cleavage of 0.2. A79G U91A showed a self-cleavage of 0.32. For G40A C145U, the self-cleavage was 0.64. G4C A77G showed a self-cleavage of 2.9. Work on A2G U100C yielded a self-cleavage of 0.62. Work on A59U A141U yielded a self-cleavage of 1.03. U20C A64G gave a self-cleavage of 0.41. C37G A59U showed a self-cleavage of 0.84. With G32A A78G the self-cleavage was 0.47. A64U U130C gave a self-cleavage of 0.55. For G83A A121C, the self-cleavage was 0.67. Variant U12A U91A has a self-cleavage of 0.82. With A22U G75A the self-cleavage was 1. In the case of A92U A141G, the self-cleavage is reported as 0.96. For U12A A64G, the self-cleavage was 0.27. With C133U A136G the self-cleavage was 0.49. For U26A A65G, the self-cleavage was 0.16. Work on A2G U102G yielded a self-cleavage of 0. With A42G U85A the self-cleavage was 0.15. U9A A121G gave a self-cleavage of 1.56. G80A A136U showed a self-cleavage of 2.49. In the case of U9A U14C, the self-cleavage is reported as 0.89. G36C U143A showed a self-cleavage of 0.7. With C18U A64U the self-cleavage was 0.19. U46A G58A showed a self-cleavage of 0.04. With A2U U143C the self-cleavage was 1.28. For C116A, the self-cleavage was 1.16. U1C U62C showed a self-cleavage of 0.12. In the case of A6U U12C, the self-cleavage is reported as 1.43. Work on G21U G72A yielded a self-cleavage of 1.62. A94U A129G gave a self-cleavage of 0.3. C17A U108C showed a self-cleavage of 1.96. U15C U20C showed a self-cleavage of 1.33. For U102G A129G, the self-cleavage was 0.88. Work on A22G U104C yielded a self-cleavage of 1.26. With G27U U52C the self-cleavage was 0.36. In the case of G75A A140G, the self-cleavage is reported as 0.88. Variant U14A A42C has a self-cleavage of 0.97. With G41U A94G the self-cleavage was 0.05. Variant G54A U130C has a self-cleavage of 0.9. In the case of U12A U87A, the self-cleavage is reported as 0.11. With C17U U46A the self-cleavage was 0.72. Work on A79U U109C yielded a self-cleavage of 1.34. For C61U U87C, the self-cleavage was 0.03. Work on G27C U112C yielded a self-cleavage of 1.53. Work on A117U G126U yielded a self-cleavage of 1.11. C131U A136G showed a self-cleavage of 1.39. U23A A64G gave a self-cleavage of 0.23. Work on A6G C38U yielded a self-cleavage of 1.62. With U91C G137A the self-cleavage was 1.14. Variant U9C A22G has a self-cleavage of 1.03. Work on U29C C113U yielded a self-cleavage of 1.44. In the case of U115A U119C, the self-cleavage is reported as 2.02. U15C C145U gave a self-cleavage of 1.47.
